The values below come from patent US20160137739A1 (KINIKSA PHARMACEUTICALS, published 2016).

As usually defined, the EC50 is the midpoint of the concentration-response curve. As a reminder, the Kd is the free concentration of one partner at which half of the binding sites on the other are occupied at equilibrium, for simple one-to-one binding. As usually defined, the koff is a measure of how fast the partners let go of each other. The kon is a measure of how fast the partners come together.

T1: OSMR (UniProt Q99650 28-740)
T1 sequence (looked up): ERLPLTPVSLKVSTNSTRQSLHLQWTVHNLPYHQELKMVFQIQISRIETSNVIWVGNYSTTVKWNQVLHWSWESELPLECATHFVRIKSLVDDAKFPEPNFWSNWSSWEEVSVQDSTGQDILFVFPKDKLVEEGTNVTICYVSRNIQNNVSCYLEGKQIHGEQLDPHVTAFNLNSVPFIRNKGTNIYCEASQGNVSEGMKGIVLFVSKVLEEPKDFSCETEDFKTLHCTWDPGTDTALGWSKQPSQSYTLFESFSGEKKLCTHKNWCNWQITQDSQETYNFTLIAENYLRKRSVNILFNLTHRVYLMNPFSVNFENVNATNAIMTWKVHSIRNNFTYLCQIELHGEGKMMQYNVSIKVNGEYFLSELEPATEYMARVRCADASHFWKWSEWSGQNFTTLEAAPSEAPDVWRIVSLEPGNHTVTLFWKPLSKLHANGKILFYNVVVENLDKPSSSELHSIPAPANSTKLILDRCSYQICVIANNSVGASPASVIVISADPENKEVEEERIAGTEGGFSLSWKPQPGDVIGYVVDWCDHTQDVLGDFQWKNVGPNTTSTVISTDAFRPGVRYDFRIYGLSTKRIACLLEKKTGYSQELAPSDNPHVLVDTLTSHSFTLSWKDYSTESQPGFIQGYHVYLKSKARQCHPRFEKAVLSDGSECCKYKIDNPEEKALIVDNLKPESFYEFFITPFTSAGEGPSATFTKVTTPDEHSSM

T2: human OSMR expressed on cells (human, UniProt Q99650 28-979)
T2 sequence: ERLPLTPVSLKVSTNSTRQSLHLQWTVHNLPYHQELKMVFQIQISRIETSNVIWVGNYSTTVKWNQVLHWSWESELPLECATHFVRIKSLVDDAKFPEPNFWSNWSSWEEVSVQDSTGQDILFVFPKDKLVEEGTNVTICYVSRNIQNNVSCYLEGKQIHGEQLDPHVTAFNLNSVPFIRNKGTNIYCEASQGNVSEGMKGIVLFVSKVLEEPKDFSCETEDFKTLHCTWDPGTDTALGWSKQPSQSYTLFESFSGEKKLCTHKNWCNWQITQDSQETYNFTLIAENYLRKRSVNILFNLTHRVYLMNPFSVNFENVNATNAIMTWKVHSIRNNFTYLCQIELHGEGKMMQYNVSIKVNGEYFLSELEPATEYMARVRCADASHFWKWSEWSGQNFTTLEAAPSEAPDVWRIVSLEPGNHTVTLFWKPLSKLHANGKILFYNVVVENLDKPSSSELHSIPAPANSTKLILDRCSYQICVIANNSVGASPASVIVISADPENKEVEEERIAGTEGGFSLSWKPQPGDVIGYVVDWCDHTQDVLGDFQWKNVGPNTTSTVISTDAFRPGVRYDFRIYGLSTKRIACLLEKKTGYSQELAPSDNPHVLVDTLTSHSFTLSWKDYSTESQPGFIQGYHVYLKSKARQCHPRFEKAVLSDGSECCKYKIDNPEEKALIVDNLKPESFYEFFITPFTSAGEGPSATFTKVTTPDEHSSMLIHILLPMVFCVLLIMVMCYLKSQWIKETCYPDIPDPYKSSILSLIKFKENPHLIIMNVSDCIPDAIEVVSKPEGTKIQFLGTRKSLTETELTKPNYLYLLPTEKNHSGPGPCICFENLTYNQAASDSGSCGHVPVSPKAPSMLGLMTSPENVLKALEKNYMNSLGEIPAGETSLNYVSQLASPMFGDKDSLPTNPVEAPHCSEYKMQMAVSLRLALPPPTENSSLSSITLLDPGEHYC

T3: hOSMR.FH (human, UniProt Q99650 28-740)
T3 construct: also called huOSMR
T3 sequence: T1 sequence (looked up)

T4: Soluble OSMR (UniProt Q99650 28-740)
T4 sequence (looked up): T1 sequence (looked up)

T5: cynomologus OSMR expressed on cells (cynomologus monkey (Macaca fascicularis), UniProt Q99650 28-978 (human entry))
T5 chain: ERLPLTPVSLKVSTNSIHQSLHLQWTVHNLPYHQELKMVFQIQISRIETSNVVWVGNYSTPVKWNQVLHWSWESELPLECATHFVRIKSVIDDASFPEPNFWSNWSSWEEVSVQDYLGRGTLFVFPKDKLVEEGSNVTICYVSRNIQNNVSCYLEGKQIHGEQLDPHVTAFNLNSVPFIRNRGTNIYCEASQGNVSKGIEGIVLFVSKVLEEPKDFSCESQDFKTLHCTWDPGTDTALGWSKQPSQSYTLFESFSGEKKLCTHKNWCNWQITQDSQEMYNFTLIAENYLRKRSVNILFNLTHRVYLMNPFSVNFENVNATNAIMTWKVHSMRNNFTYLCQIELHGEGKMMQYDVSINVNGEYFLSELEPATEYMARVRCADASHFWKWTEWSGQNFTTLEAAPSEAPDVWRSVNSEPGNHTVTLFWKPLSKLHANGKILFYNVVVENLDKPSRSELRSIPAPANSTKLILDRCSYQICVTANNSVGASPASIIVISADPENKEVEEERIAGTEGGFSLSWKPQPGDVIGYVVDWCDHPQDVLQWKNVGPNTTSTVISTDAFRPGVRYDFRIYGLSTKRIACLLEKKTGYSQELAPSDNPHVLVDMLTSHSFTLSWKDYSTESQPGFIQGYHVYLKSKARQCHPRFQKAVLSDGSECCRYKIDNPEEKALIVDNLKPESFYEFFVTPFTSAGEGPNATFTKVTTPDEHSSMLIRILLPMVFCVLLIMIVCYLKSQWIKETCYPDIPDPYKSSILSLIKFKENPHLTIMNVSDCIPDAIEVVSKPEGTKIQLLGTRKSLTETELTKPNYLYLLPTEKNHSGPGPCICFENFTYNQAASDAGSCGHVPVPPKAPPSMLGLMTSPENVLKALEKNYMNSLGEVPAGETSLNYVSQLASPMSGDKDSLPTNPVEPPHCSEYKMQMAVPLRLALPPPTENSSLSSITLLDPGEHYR

B1: Ab1 (antibody, human IgG2, lambda, V domains shown)
VH: QVQLVQSGAEVKKPGASVKVSCKASGYTFTSYDINWVRQATGQGLEWMGWMNPNSGNTDYAQKFQGRVTMTRNISISTAYIELSSLRSEDTAVYYCARDMVAANTDYYFYYGMDVWGQGTTVTVSS
VL: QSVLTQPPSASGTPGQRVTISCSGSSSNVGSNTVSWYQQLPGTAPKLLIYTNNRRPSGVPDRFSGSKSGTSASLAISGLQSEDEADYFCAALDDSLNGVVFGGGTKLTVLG
notes: also called Ab1 IgG2 WT; antibody 1
B2: Ab2 (antibody, human IgG2, lambda, V domains shown)
VH: B1 VH with D33E, N57Y, D59G, I74T, I81M, L83M, M100I
VL: QSVLTQPPSASGTPGQRVTISCSGSNSNIGSNTVNWYHQLPGTAPKLLIYNINKRPSGVPDRFSGSKSGSSASLAISGLQSEDEADYYCSTWDDSLDGVVFGGGTKLTVLG
notes: also called Ab2 IgG2 WT; antibody 2
B3: Ab2 N73D IgG4P agly/IgG1 (antibody, V domains shown)
VH: B1 VH with D33E, N57Y, D59G, N73D, I74T, I81M, L83M, M100I
VL: B2 VL
B4: Ab2 N73D IgG2 (antibody, V domains shown)
VH: B1 VH with D33E, N57Y, D59G, N73D, I74T, I81M, L83M, M100I
VL: B2 VL
notes: also called Ab2 version 2
B5: Ab1 N73D IgG2 (antibody, V domains shown)
VH: B1 VH with N73D
VL: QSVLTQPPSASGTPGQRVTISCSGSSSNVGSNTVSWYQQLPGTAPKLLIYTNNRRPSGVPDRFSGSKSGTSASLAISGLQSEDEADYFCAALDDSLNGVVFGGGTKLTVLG
notes: also called Ab1 version 2
B6: Ab1 N73D IgG4P agly/IgG1 (antibody, V domains shown)
VH: B1 VH with N73D
VL: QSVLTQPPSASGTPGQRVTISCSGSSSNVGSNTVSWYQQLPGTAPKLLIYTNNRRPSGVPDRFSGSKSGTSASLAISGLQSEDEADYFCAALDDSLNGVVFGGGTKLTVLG
B7: Ab3 (antibody, human IgG2, kappa, V domains shown)
VH: QVHLVQSGAEVKKPGASVKVSCKASGYTFTSYGISWVRQAPGQGLEWMGWLSTYSGNTNYAQKLQGRVTMTTDTSTSTAYMELRSLRSDDTAVYYCARGNFYYYGMDVWGQGTTVTVSS
VL: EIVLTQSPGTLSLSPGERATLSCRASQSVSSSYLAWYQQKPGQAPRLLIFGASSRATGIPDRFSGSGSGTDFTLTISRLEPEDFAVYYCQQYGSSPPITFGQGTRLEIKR
notes: also called antibody 3

Residue numbers refer to the chain shown, from its start. Numbers in names are those of the source.

In one test the target is T1, OSMR. The test is described as follows: Direct ELISA (solid state avidity format).
B1: a half-maximal response (EC50) required 0.184 nM.
On the same count and under the same terms, to B2 belongs 0.182 nM; to B3, 0.0558 nM.
As for B4, the EC50 turned out to be 0.179 nM.
Molecule B5 yielded an EC50 of 0.0728 nM.
With B6, the EC50 was 0.0626 nM.

A further test concerns the target T2, human OSMR expressed on cells. The test is described as follows: cell-based or functional assay.
As to B7, the “IC50, IL-31-induced proliferation of BaF3 cells expressing human IL-31RA4 and OSMR” value came to 0.78 nM; the “IC50, OSM-induced STAT3 nuclear translocation in primary normal human lung fibroblasts” value came to 1.35 nM.
As to B1, the “IC50, IL-31-induced proliferation of BaF3 cells expressing human IL-31RA4 and OSMR” value was determined as 0.0352 nM; the “IC50, OSM-induced STAT3 nuclear translocation in primary normal human lung fibroblasts” value came to 0.157 nM.
In the same order, the values of B2 are 0.0276 nM and 0.252 nM.

The next test deals with T3, hOSMR.FH. The test is described as follows: SPR, Biacore 3000, antibody captured by anti-human IgG, hOSMR.FH analyte, 25 C.
Procedure: Biosensor analysis was conducted at 25 C in a HBS-EP+(1×) buffer system (10 mM HEPES pH 7.4, 150 mM NaCl, 3.0 mM EDTA, 0.05% Surfactant P20) using a Biacore 3000 optical biosensor equipped with a CM5 sensor chip. All reagents were kept at 8° C. prior to injection. […] Antibodies 1-3 were diluted (0.25 to 0.5 μg/mL) in running buffer. The antibodies were injected (15 μL) over Flow Cell 2 at a flow rate of 10 μL/min. About 50 RU of antibody was captured. […] Samples were run in duplicate and in random order.
Buffer analyte blanks (0 nM hOSMR) were injected before, in-between, and after sample injections. Antibodies were injected (15 μL) over Flow Cell 2 at a flow rate of 10 μL/min. About 50 RU of antibody was captured. […] The samples were run in triplicate.
Data was analyzed with Scrubber 2.0 software as follows. Data from Flow Cell 2 was subtracted from the data from Flow Cell I (blank reference). The reference subtracted data (2-1) was then subtracted (double referenced) from the nearest 0 nM concentration data. The double referenced long dissociation data was fit to a 1:1 binding model to determine the dissociation rate constant (kd). This dissociation rate constant was used as a fixed parameter to fit the double referenced short dissociation data to a 1:1 binding model in order to determine the association rate constant (ka) and the equilibrium dissociation constant (Kd).
In turn, B7 yielded a Kd of 1.08 nM, a koff of 0.000102 s⁻¹ and a kon of 94700 M⁻¹ s⁻¹.
In the same order, the values of B1 are 0.221 nM, 9.95e-05 s⁻¹ and 447000 M⁻¹ s⁻¹.
In the same order, the values of B2 are 0.0327 nM, 1.81e-05 s⁻¹ and 550000 M⁻¹ s⁻¹.

The target in a further test is T4, Soluble OSMR. The test is described as follows: BIAcore, antibody immobilized on CM4 chip, soluble OSMR analyte. (In general: In SPR one partner is held on a chip, and binding of the other changes the refractive index at the surface.)
Procedure: Binding studies were performed using the BIAcore method. Antibodies containing the variable regions of Ab1 or Ab2 (or the N73D variant of Ab1 or Ab2) with different Fe regions were immobilized on a CM4 chip (GE lifesciences) as per manufacturer's protocols. Soluble OSMR was used as the analyte.
Molecule B1 displayed a Kd of 0.913 nM, a koff of 0.00015 s⁻¹ and a kon of 164000 M⁻¹ s⁻¹.
Regarding B2, the Kd was 1.01 nM, the koff was found to be 0.000189 s⁻¹ and the kon amounted to 188000 M⁻¹ s⁻¹.
In the same order, the values of B4 are 0.289 nM, 4.99e-05 s⁻¹ and 173000 M⁻¹ s⁻¹.
In the same order, the values of B5 are 0.675 nM, 0.000168 s⁻¹ and 249000 M⁻¹ s⁻¹.

For a further test, the target named is T5, cynomologus OSMR expressed on cells. The test is described as follows: cell-based or functional assay.
For B7, the “IC50, cyno IL-31-induced proliferation of BaF3 cells overexpressing cyno IL-31RA and OSMR” value came out at 6.87 nM; the “IC50, cyno OSM-induced STAT3 nuclear translocation in a primary kidney epithelial cell line” value was 1.24 nM.
In the same order, the values of B1 are 0.225 nM and 1.26 nM.
In the same order, the values of B2 are 0.0293 nM and 0.518 nM.

Another test concerns the target T1, OSMR. The test is described as follows: Sandwich ELISA (solution phase format).
As for B1, the EC50 was determined as 0.581 nM.
B2 registered an EC50 of 0.366 nM.
Same read-out and setting: under B3 stands 0.064 nM; under B4, 0.343 nM; under B5, 0.359 nM.
Still for that read-out and setting: under B6 stands 0.05 nM.

In another test the target is T1, OSMR. In words: Capture ELISA (avidity-less format). For orientation: ELISA stands for enzyme-linked immunosorbent assay.
B1: the EC50 came to 10.2 nM.
Same read-out and setting: under B2 stands 3.63 nM.
The same measure, in the same setting: under B3 stands 1.61 nM; under B4, 5.49 nM.
Still for that read-out and setting: under B5 stands 4.85 nM; under B6, 2.86 nM.
